Data on 11 molecules can be found in paper PMC7954794, “Protein context shapes the specificity of SH3 domain-mediated interactions in vivo” (Nature Communications, 2021).

Common to all, as to assay type: cell-based, Saccharomyces cerevisiae
The subject of one experiment is Hua2. Put plainly: Deep mutational scanning of Abp1 SH3, Abp1-Hua2 DHFR-PCA (DMS score). The conditions noted are these: Abp1-Hua2 DHFR-PCA; for HUA2_MTX2: frequencies normalized to the reference condition, MTX2, amino acid level; for hua2sc (DMS score): frequencies scaled to the synonymous mutation distribution. As for the experimental part:
(§1) Single site mutation libraries were generated by a PCR-based saturation mutagenesis method[50] as described below. The mutagenesis was carried out on the pUC19 plasmid containing the SH3 domain sequence of ABP1 flanked by its homology arms subsequently used in the CRISPR mediated genomic re-integration. We used oligos containing degenerate nucleotides (NNN) to carry out the mutagenesis at each codon of the domain sequence. In the first step of the two-step PCR procedure (short PCR step), an amplicon was generated with an oligo containing the degenerate codon which is positioned within the domain sequence, and another oligo lying outside Abp1 sequence in the plasmid. Short PCR step was carried out with the following settings: 5 min at 95 °C, 35 cycles: 20 s at 98 °C, 15 s at 60 °C, 30 s at 72 °C, and a final extension of 1 min at 72 °C. The amplicon generated in this step was used as a mega primer in the second step (long PCR step) to amplify the whole plasmid. Long PCR step was carried out with the following settings: 5 min at 95 °C, 22 cycles: 20 s at 98 °C, 15 s at 68 °C, 3 min 30 s at 72 °C, and a final extension of 5 min at 72 °C. The long PCR product was digested for 2 h at 37 °C with DpnI. The digestion product was then transformed into E. coli MC1061 competent cells. In order to obtain most of the 64 possible codons, we recovered ~1000 colonies from each plate to retrieve the plasmid single mutant libraries. Saturation mutagenesis was carried out in a codon-position-wise manner. Mutants at each position were stored separately. Library quality control was assessed by amplifying the purified plasmid DNA preparations by PCR followed by Illumina sequencing as described below. The genomic insertion of the mutant libraries (one library per amino acid position) was performed by targeting the stuffer sequence in the ABP1 SH3-deleted strain as described in the strain construction section. ABP1 SH3-deleted yeast competent cells were co-transformed with pCAS containing the stuffer-specific gRNA and PCR amplified ABP1 SH3 single position mutated libraries from the pUC19 preparations. As for the library generation, ~1000 colonies from each plate were retrieved. Glycerol stocks of yeast cells were kept for each position (58 different stocks corresponding to the 58 amino acid positions of Abp1 SH3). The stocks were also validated by Illumina sequencing (see below).
(§2) Liquid DHFR-PCA experiments were performed following the generation of the ABP1 SH3 single position mutated yeast strains and were performed in biological independent duplicates. An overnight culture was started in YPD + NAT by adding the same number of cells from each yeast mutant strain (master pool). Then, the master pool and Hua2-DHFR F[3] or Lsb3-DHFR F[3] preys strains were mixed in YPD (2:1) for mating and incubated for 8 h at 30 °C. Diploid cells were selected the first time by transferring the mixture in a YPD + NAT + HPH (OD 0.5) culture for 16 h at 30 °C. The next day, the first diploid selection was transferred in SC complete pH 6.0 + NAT + HPH at 0.5 OD and the culture was grown for 24 h at 30 °C. The validation of the yeast mutant libraries was done the next day with a fraction of the diploid cells (first DHFR-PCA experiment time point without PCA selection, reference condition S2) by amplifying ABP1 SH3 genomic sequence followed by Illumina sequencing as described in the section below. Following the selection, diploid cells OD was read using a TECAN Infinite F200 Pro, and dilutions to 0.1 OD in PCA selection media without agar in a 50 mL tube was done. Tubes were incubated at 30 °C for 72 h (second-time point of the DHFR-PCA experiment, first PCA selection). A fraction of the cells (5U OD) was collected for Illumina sequencing. The cells from the first PCA step were grown for a second PCA selection step using the same procedures. […]

A further experiment concerns Lsb3. In words: Deep mutational scanning of Abp1 SH3, Abp1-Lsb3 DHFR-PCA (DMS score). To be noted: Abp1-Lsb3 DHFR-PCA; for LSB3_MTX2: frequencies normalized to the reference condition, MTX2, amino acid level; for lsb3sc (DMS score): frequencies scaled to the synonymous mutation distribution. As for the experimental part: as §1, §2
A further experiment relates to ABP1. Put plainly: DHFR-PCA on solid medium, bait ABP1 (Fig. 1B). To be noted: bait ABP1, label = prey. The source says:
(§3) Supplement 41467_2021_21873_MOESM8_ESM.xlsx, sheet "Fig1B" | column: medsize; medrep; Ratio; Score

The test system of another experiment is BEM1-1. Put plainly: DHFR-PCA on solid medium, bait BEM1-1 (Fig. 1B). To be noted: bait BEM1-1, label = prey; for medrep (log2 median colony size normalized to plate background, PCA score): 2-8 replicates; for Ratio (SH3-deleted/WT medrep): only significant differences showed, PPIs completely lost have a ratio of 0.1 and the gained PPIs 2.5.
Excerpt: as §3

B1: ABP1 T18T (protein, UniProt P15891 2-592, looked up)
Actin-binding protein: ALEPIDYTTHSREIDAEYLKIVRGSDPDTTWLIISPNAKKEYEPESTGSSFHDFLQLFDETKVQYGLARVSPPGSDVEKIIIIGWCPDSAPLKTRASFAANFAAVANNLFKGYHVQVTARDEDDLDENELLMKISNAAGARYSIQTSSKQQGKASTPPVKKSFTPSKSPAPVSKKEPVKTPSPAPAAKISSRVNDNNDDDDWNEPELKERDFDQAPLKPNQSSYKPIGKIDLQKVIAEEKAKEDPRLVQKPTAAGSKIDPSSDIANLKNESKLKRDSEFNSFLGTTKPPSMTESSLKNDDDKVIKGFRNEKSPAQLWAERKAKQNSGNAETKAEAPKPEVPEDEPEGEPDVKDLKSKFEGLAASEKEEEEMENKFAPPPKKSEPTIISPKPFSKPQEPVKAEEAEQPKTDYKKIGNPLPGMHIEADNEEEPEENDDDWDDDEDEAAQPPLPSRNVASGAPVQKEEPEQEEIAPSLPSRNSIPAPKQEEAPEQAPEEEIEEEAEEAAPQLPSRSSAAPPPPPRRATPEKKPKENPWATAEYDYDAAEDNELTFVENDKIINIEFVDDDWWLGELEKDGSKGLFPSNYVSLGN
modifications: synonymous codon change T18T
As for B1, in the experiment on Hua2, the HUA2_MTX2 is recorded as 1.603 and the “hua2sc (DMS score)” value is given as -0.009347. In addition, in the experiment on Lsb3, the LSB3_MTX2 is recorded as 1.406 and the “lsb3sc (DMS score)” value is listed as -0.09387.

B2: ABP1 N22N (protein, UniProt P15891 2-592, looked up)
Actin-binding protein: B1 Actin-binding protein
modifications: synonymous codon change N22N
Regarding B2, in the experiment on Hua2, the HUA2_MTX2 worked out at 0.8417 and the “hua2sc (DMS score)” value was -0.7711. In the experiment on Lsb3, the LSB3_MTX2 is 0.8355 and the “lsb3sc (DMS score)” value was -0.6648.

B3: ABP1 V20V (protein, UniProt P15891 2-592, looked up)
Actin-binding protein: B1 Actin-binding protein
modifications: synonymous V20V codon change in SH3
For the molecule B3, in the experiment on Hua2, the HUA2_MTX2 came out at 1.042 and the “hua2sc (DMS score)” value is on record as -0.571. Besides, in the experiment on Lsb3, the LSB3_MTX2 is 1.496 and the “lsb3sc (DMS score)” value is given as -0.004531.

B4: ABP1 E21E (protein, UniProt P15891 2-592, looked up)
Actin-binding protein: B1 Actin-binding protein
modifications: synonymous codon change E21E in SH3
On to B4, for which, in the experiment on Hua2, the HUA2_MTX2 worked out at 2.3423 and the “hua2sc (DMS score)” value turned out to be 0.7295. Besides, in the experiment on Lsb3, the LSB3_MTX2 is on record as 2.169 and the “lsb3sc (DMS score)” value worked out at 0.669.

B5: ABP1 D23D (protein, UniProt P15891 2-592, looked up)
Actin-binding protein: B1 Actin-binding protein
modifications: synonymous codon change D23D
Take B5: in the experiment with Hua2, the HUA2_MTX2 amounted to 1.908 and the “hua2sc (DMS score)” value is 0.295. Besides, in the experiment with Lsb3, the LSB3_MTX2 turned out to be 1.357 and the “lsb3sc (DMS score)” value is reported as -0.1431.

B6: ABP1 F19F (protein, UniProt P15891 2-592, looked up)
Actin-binding protein: B1 Actin-binding protein
modifications: synonymous codon change F19F
Turning to B6, in the experiment on Hua2, the HUA2_MTX2 was 2.091 and the “hua2sc (DMS score)” value is 0.4783. Moreover, in the experiment with Lsb3, the LSB3_MTX2 is reported as 1.966 and the “lsb3sc (DMS score)” value is 0.4657.

B7: YDL065C (protein, UniProt Q07418 1-339, looked up)
Peroxisomal membrane protein …: MNENEYDNFDDLDDLLDEDPTKLDEAEPDDVQAKGSVYNDSENKEKNAESKDSDGVQVANESEEDPELKEMMVDLQNEFANLMKNNGNENNVKTEDFNKLISALEEAAKVPHQQMEQGCSSLKSNSTDKGTVNGSNPGFKNIVSNTLDRLKENGNKVDTSLAEETKESQRSGQNNNIDDILSQLLDQMVASGGKESAENQFDLKDGEMDDAITKILDQMTSKEVLYEPMKEMRSEFGVWFQENGENEEHKEKIGTYKRQFNIVDEIVNIYELKDYDELKHKDRVTELLDELEQLGDSPIRSANSPLKHGNEEEELMKMLEIDGNDPNLGNLDKELTDGC
Regarding B7, the “medrep (log2 median colony size normalized to plate background, PCA score)” value in the experiment on ABP1 (2-4 replicates) amounted to 3.518; with BEM1-1, 3.086. For the same molecule, the “Ratio (SH3-deleted/WT medrep)” value in the experiment on ABP1 (only significant differences showed, PPIs completely lost have a ratio of 0.1 and the gained PPIs 2.5) was 1.321; with BEM1-1 it was 2.5.

B8: YDR329C (protein, UniProt P28795 1-441, looked up)
Peroxisomal biogenesis factor …: MAPNQRSRSLLQRHRGKVLISLTGIAALFTTGSVVVFFVKRWLYKQQLRITEQHFIKEQIKRRFEQTQEDSLYTIYELLPVWRMVLNENDLNLDSIVTQLKDQKNQLTRAKSSESRESSPLKSKAELWNELELKSLIKLVTVTYTVSSLILLTRLQLNILTRNEYLDSAIKLTMQQENCNKLQNRFYNWVTSWWSDPEDKADDAMVMAAKKSKKEGQEVYINEQAFLSLSWWILNKGWLSYNEIITNQIEIEFDGIHPRDTLTLEEFSSRLTNIFRNTNSQIFQQNNNNLTSILLPKDSSGQEFLLSQTLDADALTSFHSNTLVFNQLVNELTQCIESTATSIVLESLINESFHFIMNKVGIKTIAKKKPGQEDQQQYQMAVFAMSMKDCCQEMLQTTAGSSHSGSVNEYLATLDSVQPLDDLSASVYSNFGVSSSFSFKP
On to B8, for which, in the experiment on BEM1-1, the “medrep (log2 median colony size normalized to plate background, PCA score)” value is given as 2.151 and the “Ratio (SH3-deleted/WT medrep)” value is 2.5.

B9: YOL147C (protein, UniProt Q12462 2-236, looked up)
Peroxisomal membrane protein …: VCDTLVYHPSVTRFVKFLDGSAGREKVLRLLQYLARFLAVQNSSLLARQLQAQFTTVRKFLRFLKPLNHLQAAAKFYDNKLASDNVVRVCNVLKNIFFAAYLSLDQVNLLRILKVIPVTVLTGKKIPRWSNWCWLFGLLSGLAMDLRKIQTSHAQIAAFVKAKSQSQGDEHEDHKKVLGKAYQDRYTALRRLFWDAADSFIVLNNLGYLSSNEEYVALSGVVTSILGMQDMWKAT
As to B9, in the experiment on BEM1-1, the “medrep (log2 median colony size normalized to plate background, PCA score)” value is reported as 4.705 and the “Ratio (SH3-deleted/WT medrep)” value came to 2.5.

B10: YLR191W (protein)
chain: EFARALYDFVPENPEMEVALKKGDLMAILSKKDPLGRDSDWWKVRTKNGNIGYIPYNYIEIIK
Consider B10, for which, in the experiment on BEM1-1, the “medrep (log2 median colony size normalized to plate background, PCA score)” value is recorded as 3.807 and the “Ratio (SH3-deleted/WT medrep)” value is reported as 2.5.

B11: YGL153W (protein, UniProt P53112 2-341, looked up)
Peroxisomal membrane protein …: SDVVSKDRKALFDSAVSFLKDESIKDAPLLKKIEFLKSKGLTEKEIEIAMKEPKKDGIVGDEVSKKIGSTENRASQDMYLYEAMPPTLPHRDWKDYFVMATATAGLLYGAYEVTRRYVIPNILPEAKSKLEGDKKEIDDQFSKIDTVLNAIEAEQAEFRKKESETLKELSDTIAELKQALVQTTRSREKIEDEFRIVKLEVVNMQNTIDKFVSDNDGMQELNNIQKEMESLKSLMNNRMESGNAQDNRLFSISPNGIPGIDTIPSASEILAKMGMQEESDKEKENGSDANKDDNAVPAWKKAREQTIDSNASIPEWQKNTAANEISVPDWQNGQVEDSIP
As for B11, in the experiment on BEM1-1, the “medrep (log2 median colony size normalized to plate background, PCA score)” value is 2.088 and the “Ratio (SH3-deleted/WT medrep)” value is given as 2.5.
